Legend:
HaCaT keratinocytes = test: Inhibition of HBEGF-induced differentiation of HaCaT keratinocytes, marker mRNA by RT-PCR (Example 21); assay type: cell-based, human; conditions: 2.5 ng/mL human recombinant HBEGF protein alone, 24 hours
Experimental: Human HaCaT keratinocytes were cultured in a DMEM culture medium containing 10% fetal bovine serum, 100 U/mL penicillin, and 100 µg/mL streptomycin. The cells were seeded into a 96-well plate at a density of […] and placed in an incubator containing 5% carbon dioxide for culture at 37° C. for 24 hours. An equal volume of DMSO was added into control well 1, a 2.5 ng/mL human recombinant HBEGF protein (Abcam, ab205523) was added into control well 2, and a 2.5 ng/mL human recombinant HBEGF protein and corresponding concentrations of test compounds were added into sample wells. The cells were continuously cultured for 24 hours, washed with PBS, and then collected by high-speed centrifugation. Total RNA was extracted using a Trizol reagent (Sigma Aldrich). 1 μg of RNA was reverse-transcribed into cDNA using a cDNA reverse transcription kit (Transgene Biotech, AT311-03). 1.25 μL of a primer (with a primer sequence shown in Table 2), 10 μL of an iTag Universal SYBR Green supermix (Bio-Rad, 172-S125), and an appropriate amount of DEPC ultrapure water were added to formulate 20 μL of a reaction solution to perform an RT-PCR reaction. Upon completion of the reaction, the reaction solution was subjected to agarose gel electrophoresis to determine the mRNA expression amounts of keratinocyte differentiation markers KRT1, KRT10, Loricrin, and Involucrin.

[1] = system: KRT1, KRT10, Loricrin, and Involucrin in HaCat keratinocytes; test: Expression of keratinocyte differentiation markers in HaCat cells, RT-PCR and Western blot (Example 18); assay type: cell-based, human; conditions: HBEGF protein alone, 24 hours
Experimental: 1*10^8 HaCat cells were seeded in culture dishes, into which a recombinant HBEGF protein (Thermo Fisher Scientific, Cat. #100-47-1 mg) was added. The cells were placed in an incubator containing 5% carbon dioxide for culture at 37° C. for 24 hours, into which an HBEGF antibody (Invitrogen, Cat. #406316) was added, or METTL3 siRNA (sh-METTL3, GeneChem) and NAP1L2 siRNA (sh-NAP1L2, GeneChem) were transfected. The cells were placed in an incubator containing 5% carbon dioxide for culture at 37° C. for 24 hours, washed with PBS, and then collected by high-speed centrifugation. An RLT lysis buffer was added to the above collected cells, the mixture was shaken at 4° C. for half an hour and centrifuged to collect the supernatant, and the protein expression amounts of keratinocyte differentiation markers KRT1, KRT10, Loricrin, and Involucrin were measured by Western blot.
Total RNA was extracted using a Trizol reagent (Sigma Aldrich). 1 μg of RNA was reverse-transcribed into cDNA using a cDNA reverse transcription kit (Transgene Biotech, Cat. #AT311-03). 1.25 μL of a primer (with a primer sequence shown in Table 2), 10 μL of an iTag Universal SYBR Green supermix (Bio-Rad, Cat. #172-5125), and an appropriate amount of DEPC ultrapure water were added to formulate 20 μL of a reaction solution to perform an RT-PCR reaction. […]

B1: recombinant HBEGF protein: recombinant HBEGF protein used to induce keratinocyte differentiation (protein, UniProt Q99075 63-148, looked up)
Heparin-binding EGF-like …: DLQEADLDLLRVTLSSKPQALATPNKEEHGKRKKKGKGLGKKRDPCLRKYKDFCIHGECKYVKELRAPSCICHPGYHGERCHGLSL
Question: For B1, which “mRNA expression amounts of HaCaT differentiation markers KRT1, KRT10, Loricrin, and Involucrin” value (HaCaT keratinocytes) is on record?
Answer: The value was “significantly increased”.

Question: And the “mRNA and protein expression amounts of KRT1, KRT10, Loricrin, and Involucrin” value [1]?
Answer: Its value is “significantly increased”.
